According to paper PMC9616769, “Deconstruction of Neurotrypsin Reveals a Multi-factorially Regulated Activity Affecting Myotube Formation and Neuronal Excitability” (Molecular Neurobiology, 2022):

Target: the molecule itself
Assay: SEC-MALS; Protein KW.802.5 (Shodex) column, 1 mL/min, 50 mM TRIS/HCl, 500 mM NaCl, pH 8.0; protein conjugate analysis

B1: AGR-124 (human agrin y4z19, FS9-LG3 domains, Ala893-Pro2068) (domain or fragment)
chain: not shown
modifications: glycans (limited N-linked, presumably O-linked) contributing around 10% of the total mass
notes: human agrin y4z19, 9th FS domain to the last LG domain (FS9-LG3), Ala893-Pro2068; codon-optimized synthetic gene; Tag removed with TEV protease; also called agrin-like AGR-124 substrate; source: SFM-HEK293 suspension cells, transient transfection; purified from the medium (Ni-IMAC, heparin, SEC); not shown: 6xHis, N-terminal, cleaved
binding result: binds
